According to US20210206856A1 (PANDION OPERATIONS, published 2021):
Like-named read-outs stand apart in the source and are kept apart here.

T1: mouse MAdCAM expressed on cells (mouse, UniProt Q61826 22-405)
T1 construct: whole, on cells
T1 sequence (looked up): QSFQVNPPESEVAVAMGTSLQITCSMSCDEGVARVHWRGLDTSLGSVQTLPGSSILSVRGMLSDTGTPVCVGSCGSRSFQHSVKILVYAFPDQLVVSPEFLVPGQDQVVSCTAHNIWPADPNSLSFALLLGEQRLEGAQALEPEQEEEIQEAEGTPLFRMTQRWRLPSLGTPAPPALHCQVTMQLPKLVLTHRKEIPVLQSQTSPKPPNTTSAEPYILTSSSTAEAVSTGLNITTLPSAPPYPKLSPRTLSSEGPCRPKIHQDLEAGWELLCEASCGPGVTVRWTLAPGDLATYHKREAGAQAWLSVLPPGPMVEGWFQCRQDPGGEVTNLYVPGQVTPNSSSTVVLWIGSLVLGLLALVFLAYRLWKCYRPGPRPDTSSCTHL

T2: human MAdCAM expressed on cells (human, UniProt Q13477 19-382)
T2 construct: whole, on cells; also called MADCAM1
T2 sequence (looked up): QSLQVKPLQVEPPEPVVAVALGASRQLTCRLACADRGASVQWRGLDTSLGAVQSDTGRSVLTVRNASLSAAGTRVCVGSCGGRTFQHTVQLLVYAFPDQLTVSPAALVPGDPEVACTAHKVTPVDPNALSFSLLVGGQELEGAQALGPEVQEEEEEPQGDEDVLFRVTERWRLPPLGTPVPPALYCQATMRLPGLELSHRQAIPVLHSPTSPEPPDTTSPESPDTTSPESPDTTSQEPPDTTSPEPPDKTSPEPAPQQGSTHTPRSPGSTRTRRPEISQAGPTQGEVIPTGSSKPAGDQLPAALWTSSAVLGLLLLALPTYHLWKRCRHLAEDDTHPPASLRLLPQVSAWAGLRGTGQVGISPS


Key:
Experiment in all cases: cell binding
[1] = molecular target: T1, mouse MAdCAM expressed on cells
[2] = molecular target: T2, human MAdCAM expressed on cells
[3] = molecular target: T1, mouse MAdCAM expressed on cells; remark: listed apart in the source
[4] = molecular target: T2, human MAdCAM expressed on cells; remark: listed apart in the source

Binder	binding result [1]	binding result [2]	binding result [3]	binding result [4]
MAdCAM Antibody Table 1 Clone 1 (scFv) scFv: EVQLLESGGGLVQPGGSLRLSCAASGFTFSSYGMHWVRQAPGKGLEWVAVISDDGSDKYYADSVKGRFTISRDNSKNTLYLQMNSLRAEDTAVYYCTTSKYYYYYGMDVWGQGTTVTVSSGGGGSGGGGSGGGGSGGGGSDIQMTQSPSSLSASVGDRVTITCQASQDISKSLNWYQQKPGKAPKLLIYAASSLQSGVPSRFSGSGSGTDFTLTISSLQPEDFATYYCQQGYSTPLTFGGGTKVEIK		binds		
MAdCAM Antibody Table 2 Clone 75 (antibody, human IgG1, V domains shown) VH: EVQLLESGGGLVQPGGSLRLSCAASGFTFSDFWMHWVRQAPGKGLEWISYISGDSGYTNYADSVKGRFTISRDNSKNTLYLQMNSLRAEDTAVYYCARDRPYYYYMDVWGKGTTVTVSS VL: DIQMTQSPSSLSASVGDRVTITCRASQSVSRSLAWYQQKPGKAPKLLIYAASSLQSGVPSRFSGSGSGTDFTLTISSLQPEDFATYYCQQYKSYPVTFGQGTKVEIK			binds	binds
MAdCAM Antibody Table 2 Clone 77 (antibody, human IgG1, V domains shown) VH: EVQLLESGGGLVQPGGSLRLSCAASEFTFSNAWMSWVRQAPGKGLEWVASISSTSAYIDYADSVKGRFTISRDNSKNTLYLQMNSLRAEDTAVYYCAREVVGATTFDYWGQGTLVTVSS VL: DIQMTQSPSSLSASVGDRVTITCRASQSISTWLAWYQQKPGKAPKLLIYAASSLQSGVPSRFSGSGSGTDFTLTISSLQPEDFATYYCQQANAFPPTFGQGTRLEIK			binds	binds
MAdCAM Antibody Table 2 Clone 76 (antibody, human IgG1, V domains shown) VH: EVQLLESGGGLVQPGGSLRLSCAASGFTFDDYTMHWVRQAPGKGLEWVSDISGSGGSTYYADSVKGRFTISRDNSKNTLYLQMNSLRAEDTAVYYCAKDVVVAGTPLHFDYWGQGTLVTVSS VL: DIQMTQSPSSLSASVGDRVTITCQASQDISNYLNWYQQKPGKAPKLLIYAASYLQSGVPSRFSGSGSGTDFTLTISSLQPEDFATYYCQQAHNYPITFGQGTRLEIK			binds	binds
MAdCAM Antibody Table 2 Clone 84 (antibody, human IgG1, V domains shown) VH: QVQLVQSGAEVKKPGASVKVSCKASGGTFSSSAISWVRQAPGQGLEWMGWISAYNGYTNYAQKFQGRVTMTRDTSTSTVYMELSSLRSEDTAVYYCASRVHSGGSYPDDYWGQGTLVTVSS VL: DIQMTQSPSSLSASVGDRVTITCQASEHIYNYLNWYQQKPGKAPKLLIYAASSLQSGVPSRFSGSGSGTDFTLTISSLQPEDFATYYCQQTDSIPITFGQGTKVEIK			binds	binds
MAdCAM Antibody Table 2 Clone 83 (antibody, human IgG1, V domains shown) VH: EVQLLESGGGLVQPGGSLRLSCAASGFTFSSYWMHWVRQAPGKGLEWVAAISYDGKYKDYEDSVKGRFTISRDNSKNTLYLQMNSLRAEDTAVYYCARENKQWLASFDYWGQGTLVTVSS VL: DIQMTQSPSSLSASVGDRVTITCQASQDISNFVNWYQQKPGKAPKLLIYAANLRSGVPSRFSGSGSGTDFTLTISSLQPEDFATYYCQQANSFPVTFGPGTKVDIK			binds	binds
MAdCAM Antibody Table 2 Clone 79 (antibody, human IgG1, V domains shown) VH: EVQLLESGGGLVKPGGSLRLSCAASGFTFDDYAMHWVRQAPGKGLEWVASITSSSAFIDYAASVKGRFTISRDDSKNTLYLQMNSLKTEDTAVYYCARERVDWNSYFDLWGRGTLVTVSS VL: EIVMTQSPATLSVSPGERATLSCRASQGISNSYLAWYQQKPGQAPRLLIYGASTRATGIPARFSGSGSGTEFTLTISSLQSEDFAVYYCQQYYTYPPTFGPGTKVDIK			binds	binds
MAdCAM Antibody Table 2 Clone 78 (antibody, V domains shown) VH: QVQLVQSGAEVKKPGSSVKVSCKASGGTFSSYAISWVRQAPGQGLEWMGWMEPHTGNTRYAQKFQGRVTITADESTSTAYMELSSLRSEDTAVYYCAKGGFSWFDPWGQGTLVTVSS VL: not shown			binds	binds

The remaining lines, values ahead:

binding result [1]	binding result [2]	binding result [3]	binding result [4]	Binder
no binding	binds			MAdCAM Antibody Table 1 Clone 12 (scFv) scFv: QVQLVQSGAEVKKPGASVKVSCKASGYTFTGYYMHWVRQAPGQGLEWMGWIGPNSGDTNYAQKFQGRVTMTRDTSTSTVYMELSSLRSEDTAVYYCARDLDHNWYFDLWGRGTLVTVSSGGGGSGGGGSGGGGSGGGGSDIVMTQSPLSLPVTPGEPASISCRSSQSLLHSNGYNYLDWYLQKPGQSPQLLIYSSSNRAPGVPDRFSGSGSGTDFTLKISRVEAEDVGVYYCMQALHIPLTFGGGTKVEIK
		no binding	binds	MAdCAM Antibody Table 2 Clone 72 (antibody, human IgG1, V domains shown) VH: QVQLVQSGAEVKKPGASVKVSCKASGYTFTSYYMHWVRQAPGQGLEWMGVINPIGGTTTYAQKFQGRVTMTRDTSTSTVYMELSSLRSEDTAVYYCASGAPSYYYYGMDVWGQGTLVTVSS VL: DIQMTQSPSSLSASVGDRVTITCRASQSISSYLNWYQQKPGKAPKLLIYGTSYLATGVPSRFSGSGSGTDFTLTISSLQPEDFATYYCQQSYSTPLTFGQGTKVEIK
		no binding	binds	MAdCAM Antibody Table 2 Clone 73 (antibody, human IgG1, V domains shown) VH: QVQLVQSGAEVKKPGASVKVSCKASGYTFTSNYVHWVRQAPGQGLEWMGRINPHSGDTSYAQKFQGRVTMTRDTSTSTVYMELSSLRSEDTAVYYCARAGQLWSDWYFDLWGRGTLVTVSS VL: DIQMTQSPSSLSASVGDRVTITCQASQDIRNYLNWYQQKPGKAPKLLIYAATALRTGVPSRFSGSGSGTDFTLTISSLQPEDFATYYCQQSYSHPLTFGQGTKVEIK
		no binding	binds	MAdCAM Antibody Table 2 Clone 80 (antibody, human IgG1, V domains shown) VH: EVQLLESGGGLVQPGGSLRLSCAASGFTFDDYAMHWVRQAPGKGLEWVSAISGSGGSTYYADSVKGRFTISRDNSKNTLYLQMNSLRAEDTAVYYCAKDLGVVVPAALDYWGQGTTVTVSS VL: DIQMTQSPSSLSASVGDRVTITCQASQDISNHLNWYQQKPGKAPKLLIYDASNLEAGVPSRFSGSGSGTDFTLTISSLQPEDFATYYCQQSYSTPLTFGGGTKVEIK
no binding				MAdCAM Antibody Table 1 Clone 25 (scFv) scFv: QVQLVQSGAEVKKPGASVKVSCKASGYTLTTWYMYWVRQAPGQGLEWMGWINPNRGATNYAQKFQGRVTMTRDTSTSTVYMELSSLRSEDTAVYYCAKGDLWGAMDVWGQGTLVTVSSGGGGSGGGGSGGGGSGGGGSDIQMTQSPSSLSASVGDRVTITCRASDNIGSWLAWYQQKPGKAPKLLIYAASSLQSGVPSRFSGSGSGTDFTLTISSLQPEDFATYYCQQGYSTPPTFGQGTKVEIK
no binding				MAdCAM Antibody Table 1 Clone 30 (scFv) scFv: QVQLVQSGAEVKKPGASVKVSCKASGYTLTTWYMYWVRQAPGQGLEWMGWINPNRGATNYAQKFQGRVTMTRDTSTSTVYMELSSLRSEDTAVYYCAKGDLWGAMDVWGQGTLVTVSSGGGGSGGGGSGGGGSGGGGSDIQMTQSPSSLSASVGDRVTITCRASDNIGSWLAWYQQKPGKAPKLLIYAASSLQSGVPSRFSGSGSGTDFTLTISSLQPEDFATYYCQQGYSTPPTFGQGTKVEIK
		no binding	binds	MAdCAM Antibody Table 2 Clone 71 (antibody, human IgG1, V domains shown) VH: QVQLVQSGAEVKKPGASVKVSCKASGYTFTSYYMHWVRQAPGQGLEWMGIINPSGGSTSYAQKFQGRVTMTRDTSTSTVYMELSSLRSEDTAVYYCARDSVAGTGGRYYGMDVWGQGTLVTVSS VL: DIQMTQSPSSLSASVGDRVTITCRASQGISNYFAWYQQKPGKAPKLLIYAASSLQGGVPSRFSGSGSGTDFTLTISSLQPEDFATYYCQQSYSLPYTFGQGTKLEIK
		binds	binds	MAdCAM Antibody Table 2 Clone 81 (antibody, human IgG1, V domains shown) VH: EVQLLESGGGLVKPGGSLRLSCAASGFAFSSHWMHWVRQAPGKGLEWVAGTSGSGESRDYADFVKGRFTISRDDSKNTLYLQMNSLKTEDTAVYYCARETYYYYYMDVWGKGTTVTVSS VL: DIQMTQSPSSLSASVGDRVTITCRASQGISNYLAWYQQKPGKAPKLLIYDAANLEGGVPSRFSGSGSGTDFTLTISSLQPEDFATYYCQQSDIFPPTFGQGTKVEIK
		binds	binds	MAdCAM Antibody Table 2 Clone 82 (antibody, human IgG1, V domains shown) VH: QVQLVQSGAEVKKPGASVKVSCKASGYTFTRHWIHWVRQAPGQGLEWMGWINVKTGGAGYAQKFQGRVTMTRDTSTSTVYMELSSLRSEDTAVYYCARESSGWYGTDVWGQGTTVTVSS VL: DIQMTQSPSSLSASVGDRATITCRASQSISNYLAWYQQKPGKAPKLLIYAASSLQSGVPSRFSGSGSGTDFTLTISSLQPEDFATYYCQQSNSFPLTFGGGTKVEIK
no binding				MAdCAM Antibody Table 1 Clone 8 (scFv) scFv: EVQLLESGGGLVQPGGSLRLSCAASGFMFGDYAMHWVRQAPGKGLEWVSAISGSGGSTYYADSVKGRFTISRDNSKNTLYLQMNSLRAEDTAVYYCAKDLVVAGIWYFDLWGRGTLVTVSSGGGGSGGGGSGGGGSGGGGSDIQMTQSPSSLSASVGDRVTITCRASQGISNNLNWYQQKPGKAPKLLIYDASSLESGVPSRFSGSGSGTDFTLTISSLQPEDFATYYCQQTHSFPSTFGQGTKLEIK
